This note sets out measurements from patent US20260234738A1.

The target in assay [1] is full-length SARS-COV-2 spike protein (amino acids M1-T1273 of NCBI accession number YP_009724390.1) (SARS-CoV-2) (UniProt P0DTC2). The experiment in a line: cell-based or functional assay.
For assay [2], the target named is SARS-CoV-2 spike protein, Wuhan-Hu-1 sequence (S-wt), on VSV pseudoparticles (SARS-CoV-2) (UniProt P0DTC2). The experiment in a line: cell-based or functional assay.
Assay [3] has as its target high affinity human FcγR3a 176Val allotype receptor (human) (UniProt P08637). The experiment in a line: cell-based or functional assay.
For the next assay, the target named is Bt-MERS.hFc (mAb2664-L2). The experiment in a line: Luminex beads, supernatant.
The next assay concerns the target MERS.hFc (mAb2664-L1). The experiment in a line: Luminex beads, supernatant.
For the next assay, the target named is MERS.mFc (mAb2663-L1). The experiment in a line: Luminex beads, supernatant.
The target in assay [4] is Bt-SARS-CoV-2 Spike Protein (RBD) (R319-F541).mFc (column 6 of Table 8) (SARS-CoV-2). The assay can be described thus: Luminex beads, supernatant.
Assay [5] addresses MOD10-SARS-CoV-2 Spike Protein (RBD)(R319-F541).mmH (SARS-CoV-2). The experiment in a line: Luminex bead binding, antibody supernatant.
In assay [6] the target is MOD11-SARS-CoV-2 Spike Protein (RBD)(R319-F541).mmH (SARS-CoV-2). The experiment in a line: Luminex bead binding, antibody supernatant.
For assay [7], the target named is MOD12-SARS-CoV-2 Spike Protein (RBD)(R319-F541).mmH (SARS-CoV-2). The experiment in a line: Luminex bead binding, antibody supernatant.
For assay [8], the target named is MOD14-SARS-CoV-2 Spike Protein (RBD)(R319-F541).mmH (SARS-CoV-2). The assay can be described thus: Luminex bead binding, antibody supernatant.
Assay [9] concerns the target MOD15-SARS-CoV-2 Spike Protein (RBD)(R319-F541).mmH (SARS-CoV-2). The experiment in a line: Luminex bead binding, antibody supernatant.
Assay [10] concerns the target MOD2-SARS-CoV-2 Spike Protein (RBD)(R319-F541).mmH (SARS-CoV-2). The assay can be described thus: Luminex bead binding, antibody supernatant.
Assay [11] addresses MOD3-SARS-CoV-2 Spike Protein (RBD)(R319-F541).mmH (SARS-CoV-2). The experiment in a line: Luminex bead binding, antibody supernatant.
The target of assay [12] is MOD4-SARS-CoV-2 Spike Protein (RBD)(R319-F541).mmH (SARS-CoV-2). The assay can be described thus: Luminex bead binding, antibody supernatant.
For assay [13], the target named is MOD5-SARS-CoV-2 Spike Protein (RBD)(R319-F541).mmH (SARS-CoV-2). The assay can be described thus: Luminex bead binding, antibody supernatant.
In assay [14] the target is MOD6-SARS-CoV-2 Spike Protein (RBD)(R319-F541).mmH (SARS-CoV-2). The experiment in a line: Luminex bead binding, antibody supernatant.
Assay [15] concerns the target MOD7-SARS-CoV-2 Spike Protein (RBD)(R319-F541).mmH (SARS-CoV-2). The assay can be described thus: Luminex bead binding, antibody supernatant.
Assay [16] has as its target MOD8-SARS-CoV-2 Spike Protein (RBD)(R319-F541).mmH (SARS-CoV-2). The assay can be described thus: Luminex bead binding, antibody supernatant.
The target in assay [17] is MOD9-SARS-CoV-2 Spike Protein (RBD)(R319-F541).mmH (SARS-CoV-2). The assay can be described thus: Luminex bead binding, antibody supernatant.
Assay [18] deals with MOD1-SARS-CoV-2 Spike Protein (RBD)(R319-F541).mmH (SARS-CoV-2). The assay can be described thus: Luminex bead binding, antibody supernatant.
In assay [19] the target is MOD13-SARS-CoV-2 Spike Protein (RBD)(R319-F541).mmH (SARS-CoV-2). The assay can be described thus: Luminex bead binding, antibody supernatant.

Sequence of high affinity human FcγR3a 176Val allotype receptor (human) (P08637 17-254 F176V): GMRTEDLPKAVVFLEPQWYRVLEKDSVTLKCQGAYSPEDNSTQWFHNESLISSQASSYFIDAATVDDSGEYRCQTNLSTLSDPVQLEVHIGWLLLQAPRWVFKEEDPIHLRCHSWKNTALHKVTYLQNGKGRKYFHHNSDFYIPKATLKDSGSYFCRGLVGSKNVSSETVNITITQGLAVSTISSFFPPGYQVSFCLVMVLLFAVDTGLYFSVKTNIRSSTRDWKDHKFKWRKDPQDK

In turn, IgG1 Control (antibody) gave an ADCP Max (% ADCP), Jurkat/hCD20/SARS-CoV-2 Spike cells in [1] of 10.4%.

mAb10987 (antibody) displayed a Relative neutralization at 5 µg/ml in assay [2] of 100%. Moreover, in assay [3], the ADCC (Activity (%)) turned out to be 29.4% and the ADCC Mean RLU is 12000 RLU.

As to mAb10933 (antibody), the ADCC (Activity (%)) in assay [3] turned out to be 68.5%. Besides, the ADCC Mean RLU in assay [3] came out at 9740 RLU. Further, the MFI with Bt-MERS.hFc (mAb2664-L2) was found to be 26 MFI; in the assay with MERS.hFc (mAb2664-L1) it was 21 MFI; with MERS.mFc (mAb2663-L1) it was 22 MFI.

For the substance mAb10989 (antibody), the ADCC (Activity (%)) in assay [3] came out at 21.5%. In assay [3], this substance showed an ADCC Mean RLU of 10200 RLU. Further, in [4], the MFI was determined as 16100 MFI. Also, the binding signal (MFI) amounted to 15500 MFI in assay [5]; 16800 MFI in assay [6]; 15100 MFI in assay [7]; 18100 MFI in [8]; 15900 MFI in assay [9]; 16700 MFI in assay [10]. Moreover, the binding signal (MFI) was 18300 MFI in assay [11]; 15800 MFI in [12]; 3370 MFI in assay [13]; 19600 MFI in assay [14]; 15200 MFI in assay [15]; 6140 MFI in assay [16]. The substance also displayed a binding signal (MFI) in [17] of 17800 MFI.

mAb10934 (antibody): the ADCC Mean RLU in assay [3] is 11700 RLU. For the same substance, the MFI with MERS.mFc (mAb2663-L1) amounted to 77 MFI. Also, the binding signal (MFI) in assay [18] is 81 MFI; in assay [5] it was 30400 MFI; in assay [6] it was 30700 MFI; in [7] it was 32900 MFI; in assay [19], 30500 MFI; in assay [8] it was 28600 MFI. Moreover, the binding signal (MFI) in assay [9] stood at 27800 MFI; in assay [10] it was 27700 MFI; in assay [11], 25100 MFI; in assay [12], 31700 MFI; in assay [13] it was 6650 MFI; in [14] it was 30800 MFI. Moreover, the binding signal (MFI) came to 29900 MFI in assay [15], 6410 MFI in assay [16] and 31300 MFI in assay [17].
